Source: patent US20040001822A1, “Y1-isolated molecules comprising epitopes containing sulfated moieties, antibodies to such epitopes, and uses thereof” (priority 2000, published 2004)

Columns and labels:
[1] = test system: platelet-rich-plasma (PRP); assay: Ristocetin-induced aggregation of platelet-rich plasma after preincubation with scFv; type: cell-based, human; conditions: scFv 25 μg/ml
Method: The effect of Y1 (scfv) on aggregation of platelet-rich-plasma (PRP) was tested at various concentrations of Y1. PRP was pre-incubated with Y1 scfv, Y17 scfv, or a control sTM-1cFv for 4 min at 37° C. before being exposed to ristocetin, an inducer of platelet agglutination and aggregation. A reversible inhibitory effect was observed when scFv was added to PRP prior to the addition of ristocetin, and it was dose dependent.
Blood was collected into a tube containing 3.8% sodium citrate. Platelet-rich plasma was prepared by centrifugation at 250×g for 10 minutes.
(§1) For platelet aggregation studies, platelet rich plasma (PRP) and washed platelets were stirred at 500 rpm at 37° C. in whole blood Lumiaggregometer (Chronolog, Havertown,Pa.). The difference in light transmission through the platelet suspension and suspending medium was taken as 100% aggregation. The effect of Y1 on platelet aggregation was evaluated by addition of different concentration of Y1 before the addition of agonist, and the effect was recorded for four minutes.

washed platelets = assay: Effect of Y1-IgG on agglutination of washed platelets with or without ristocetin; type: cell-based, human; conditions: IgG 1 μg/ml
From the text: Due to its natural structure the full IgG Y1 has two binding sites on GPIbα and one binding site for an Fc receptor. It is likely that if full IgG Y1 binds two GPIbα molecules, it will activate platelets and induce platelet agglutination. Furthermore, because platelets have an Fc-receptor, Y1-IgG can induce platelet agglutination by binding to GPIbα and to an Fc-receptor, thereby producing platelet agglutination by each IgG Y1 binding to three platelets. Therefore, the effect of IgG Y1 on aggregation of washed platelets was tested at different concentrations of Y1-IgG in the presence or absence of ristocetin. Induction of platelet aggregation by Y1-IgG was monitored for 4 min at 37° C., followed by addition of ristocetin.
The results are presented in Table 6 and FIG. 17 without agonist. Y1-IgG alone at a final concentration of 50 μg/ml induced platelet agglutination ˜39% of normal agglutination of washed platelets. Induction of platelet agglutination by Y1-IgG was tested for 4 min at 37° C., followed by addition of ristocetin. […]
as §1, with “The difference in light transmission through the platelet suspension and suspending medium was taken as 100% aggregation.” left out

primary leukemia cells = assay: FACS binding of Y1 to primary leukemia cells of patients; parameters: species or system human
Method: (§2) Samples provided from hospitals. Patients sample 30 μl/tube. Add 5 μl/tube of CD33-APC (for AML) or CD19-APC (for B-CLL) or CD38-APC (for Multiple Myeloma). Add 5 μl/tube of CD45-PerCp and 5 μl of scFv-Y1 or control scFv-N31 or CD162-PE (KPL1). Incubate tubes 30 minutes at 4° C. with low shaking. Wash by adding 2 ml PBS and spin 5 minutes at 1200 rpm. Discard supernatant.
(§3) For a one step assay continue with the lysis step:
(§4) Add 500 μl BD Lysine solution diluted 1:10 with ddH2O (300 μl to patient sample). Vortex at high speed and incubate 12 minutes at 4° C. Wash as above. Discard supernatant. And add 500 μl PBS. The samples are read in the FACS using blood sample acquisition setup according to international standards.
(§5) For two or more assays: working buffer is PBS+1% BSA+0.05% sodium azide. Incubations and wash as above.
(§6) Lysis of the red blood cells is the final step in the assay, followed by resuspension with 500 μl PBS.

Leukemia Cells = assay: FACS of leukemia samples: anti-CD162 versus Y1; type: binding, human; conditions: 12 patient samples of Table 11
Method: Analysis of binding of scFv Y1 antibodies and anti-CD162 antibodies to diseased cells also illustrates that scFv Y1 has binding characteristics different from those of anti-CD162 antibodies. […] (Table F). Y1 binds to the leukemic cells in 10 of 12 samples. In contrast, anti-CD162 bound only 5 out of 12 samples. […] Thus, it may be concluded that, in leukemic cells, scFv Y1 binds to a ligand other than that recognized by anti-CD162.
as §2, §3, §4, §5, §6

Jurkat cells = assay: FACS binding of IgG-Y1 compared with scFv-Y1; parameters: species or system human; conditions: 5 ng IgG-Y1 versus 1 μg scFv-Y1, Jurkat cells
Method: Binding of full size IgG-Y1 molecule: Binding experiments were performed to determine the level of binding of the IgG-Y1 molecule compared to the binding level of the scFv-Y1 molecule. A two-step staining procedure was employed, wherein 5 ng of IgG-Y1 were reacted with both RAJI cells (negative control, FIG. 44) and Jurkat cells (Y1 positive cells, FIG. 44). For detection, PE-labeled goat anti-human IgG was used. Similarly, 1 μg of scFv-Y1 was reacted with Jurkat cells (FIG. 44), and PE-labeled rabbit anti-scFv was used for detection.

[2] = test system: glycocalicin, platelet lysate, KG-1 cell lysate, Raji cell lysate; assay: Western blot on glycocalicin, platelet, KG-1 and Raji lysates; type: binding, human; conditions: FIG. 20
From the text: Antibodies against GPIbα (CD42b) recognize platelet lysate and glycocalicin and but not KG-1 cell lysate (a Y1 binding positive myeloid cell line) or Raji cell lysate (a B cell line that is negative for Y1 binding at concentrations at which KG-1 cells are positive for Y1 binding). […] (FIG. 20).

B1: Y1 scFv: fully human scFv clone binding platelets and myelogenous leukemia cells, SEQ ID NO: 25 (protein, listed as Homo sapiens)
scFv: MKYLLPTAAAGLLLLAAQPAMAEVQLVESGGGVVRPGGSLRLSCAASGFTFDDYGMSWVRQAPGKGLEWVSGINWNGGSTGYADSVKGRFTISRDNAKNSLYLQMNSLRAEDTAVYYCARMRAPVIWGQGTLVTVSRGGGGSGGGGSGGGGSSELTQDPAVSVALGQTVRITCQGDSLRSYYASWYQQKPGQAPVLVIYGKNNRPSGIPDRFSGSSSGNTASLTITGAQAEDEADYYCNSRDSSGNHVVFGGGTKLTVLGAAAEQKLISEEDLNGAA
Question: Which “% aggregation” value [1] does the source give for B1 here?
Answer: Its value is 87%.

Question: And the “% inhibition” value ([1]; listed as Y1)?
Answer: Its value is “no significant inhibition”.

Question: What about the “% agglutination Without ristocetin” value (washed platelets) of the same molecule?
Answer: Its value is “no induction”.

Question: What about the “% Positive” value (primary leukemia cells; patients with AML) of the same molecule?
Answer: The value was 80%.

Question: And the “Number Positive” value (primary leukemia cells; patients with AML)?
Answer: Its value is 60/75.

Question: What about the “% Positive” value (primary leukemia cells; patients with B-Leukemia) of the same molecule?
Answer: The value was 67%.

Question: And the “Number Positive” value (primary leukemia cells; patients with B-Leukemia)?
Answer: The value was 29/43.

Question: What about the “% Positive” value (primary leukemia cells; patients with Multiple Myeloma) of the same molecule?
Answer: Its value is 100%.

Question: What about the “Number Positive” value (primary leukemia cells; patients with Multiple Myeloma) of the same molecule?
Answer: Its value is 16/16.

Question: And the “leukemia samples whose leukemic cells are bound” value (Leukemia Cells)?
Answer: The value was 10 of 12.

Question: What about the “more molecules needed for a level of detection similar to that of IgG-Y1” value (Jurkat cells) of the same molecule?
Answer: The value was “approximately 10^3 fold”.

Question: What about the “recognition in Western blot” value [2] of the same molecule?
Answer: The value was “recognized both glycocalicin, platelet lysate, and KG-1 cells, but not Raji cell extract”.
